Source: doi:10.1101/2025.05.29.656919 (bioRxiv, 2025)

T1: Glutathione S-transferase-fused VDAC3 (Arabidopsis, UniProt Q9SMX3 1-274)
T1 sequence (looked up): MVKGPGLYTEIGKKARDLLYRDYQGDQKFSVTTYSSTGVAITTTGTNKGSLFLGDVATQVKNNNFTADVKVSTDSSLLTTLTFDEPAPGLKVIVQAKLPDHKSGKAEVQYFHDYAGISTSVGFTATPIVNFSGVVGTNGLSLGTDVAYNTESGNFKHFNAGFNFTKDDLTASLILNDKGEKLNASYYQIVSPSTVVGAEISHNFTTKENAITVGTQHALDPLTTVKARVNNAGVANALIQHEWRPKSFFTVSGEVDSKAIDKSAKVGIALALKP

T2: Glutathione S-transferase-fused VDAC1 (Arabidopsis, UniProt Q9SRH5 1-276)
T2 sequence (looked up): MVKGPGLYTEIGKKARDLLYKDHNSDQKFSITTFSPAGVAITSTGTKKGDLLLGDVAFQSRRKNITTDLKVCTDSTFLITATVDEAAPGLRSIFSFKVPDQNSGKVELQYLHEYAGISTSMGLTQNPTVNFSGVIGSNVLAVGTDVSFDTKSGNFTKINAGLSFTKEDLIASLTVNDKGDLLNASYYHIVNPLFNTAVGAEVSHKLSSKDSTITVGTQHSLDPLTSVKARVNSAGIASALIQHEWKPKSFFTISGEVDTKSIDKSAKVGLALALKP

T3: Glutathione S-transferase-fused VDAC2 (Arabidopsis, UniProt Q9FJX3 1-276)
T3 sequence (looked up): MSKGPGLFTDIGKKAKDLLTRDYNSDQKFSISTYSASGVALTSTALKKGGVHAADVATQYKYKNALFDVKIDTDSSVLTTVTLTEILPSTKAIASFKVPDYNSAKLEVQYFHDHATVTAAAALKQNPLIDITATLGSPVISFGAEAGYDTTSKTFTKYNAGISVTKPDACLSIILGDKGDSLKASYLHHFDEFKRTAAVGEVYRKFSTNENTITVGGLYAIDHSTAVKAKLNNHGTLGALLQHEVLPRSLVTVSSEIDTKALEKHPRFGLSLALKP


What was measured:
Assay in all cases: pull-down
[1] = target: T1, Glutathione S-transferase-fused VDAC3
[2] = target: T2, Glutathione S-transferase-fused VDAC1
[3] = target: T3, Glutathione S-transferase-fused VDAC2

binding result [1] | binding result [2] | binding result [3] | Binder
binds | binds | binds | 6×His-tagged ATG8e (natural protein, Arabidopsis, UniProt Q8S926 1-118, looked up) MNKGSIFKMDNDFEKRKAEAGRIREKYPDRIPVIVEKAEKSEVPNIDKKKYLVPSDLTVGQFVYVIRKRIKLSAEKAIFIFVDNVLPPTGELMSSVYEDKKDEDGFLYITYSGENTFG
binds | binds | binds | ATG8e with UDS mutation (I78A, F79A, I80A) (natural protein, Arabidopsis, UniProt Q8S926 1-118, looked up) MNKGSIFKMDNDFEKRKAEAGRIREKYPDRIPVIVEKAEKSEVPNIDKKKYLVPSDLTVGQFVYVIRKRIKLSAEKAAAAFVDNVLPPTGELMSSVYEDKKDEDGFLYITYSGENTFG
